B1: anti-cMet 224D10 F(ab')2 fragment antibody (antibody, V domains shown)
VH: DLQLQESGPGLVKPSQSLSLTCSVTGYSITSAYFWSWIRQFPGNKLEWMGFINYDGTNNYNPSLKNRISITRDTSKNQFFLRLNSVTTDDTATYYCTRDRTFAYWGQGTLVTVSA
VL: DIVLTQSPATLSVTPGDRVSLSCRASQRIYNYLHWYQQKSHESPRLLIKYASQSISGIPSRFSGSGSGTDFILTINSVETEDFGMYFCQQSNSWPLTFGAGTKLELRR
modifications: acridinium conjugate (site not stated)
notes: also called 224D10 F(ab') 2 fragment conjugate
B2: anti-cMet 11E1 monoclonal antibody (hybridoma CNCM I-3724) (antibody, V domains shown)
VH: QVQLQQSGAELAKPGASVKMSCKASGYTFTSYWMNWVKQRPGQGLEWIGYINPTTGSTDYNQKLKDKATLTADKSSNTAYMQLSSLTSEDSAVYYCAIGGYGSWFAYWGQGTLVTVSA
VL: QIVLTQSPAIMSASPGEKVTLTCSASSSVSSTYLYWYQQKPGSSPKLWIYTTSILASGVPARFSGSGSGTSYSLTISSMETEDAASYFCHQWSSYPFTFGSGTKLDIK
notes: summary and claims call them variable heavy and variable light domains; Hybridoma monoclonal, coated on magnetic microparticles (capture) or labelled with acridinium (conjugate); also called m11E1; mAb 11E1

How the values were obtained:
[1] = molecular target: T1, recombinant human scMet antigen, cMet (25-932)-HIEGRMD-6His (human, UniProt P08581 25-932); experiment: … scMet B sandwich immunoassay, 224D10 F(ab')2 as acridinium conjugate
T1 construct: this entry is used for those rows too; also called soluble cMet; scMet B Sample
T1 sequence (P08581 other isoform, or with tags, fused parts or gaps limits assumed): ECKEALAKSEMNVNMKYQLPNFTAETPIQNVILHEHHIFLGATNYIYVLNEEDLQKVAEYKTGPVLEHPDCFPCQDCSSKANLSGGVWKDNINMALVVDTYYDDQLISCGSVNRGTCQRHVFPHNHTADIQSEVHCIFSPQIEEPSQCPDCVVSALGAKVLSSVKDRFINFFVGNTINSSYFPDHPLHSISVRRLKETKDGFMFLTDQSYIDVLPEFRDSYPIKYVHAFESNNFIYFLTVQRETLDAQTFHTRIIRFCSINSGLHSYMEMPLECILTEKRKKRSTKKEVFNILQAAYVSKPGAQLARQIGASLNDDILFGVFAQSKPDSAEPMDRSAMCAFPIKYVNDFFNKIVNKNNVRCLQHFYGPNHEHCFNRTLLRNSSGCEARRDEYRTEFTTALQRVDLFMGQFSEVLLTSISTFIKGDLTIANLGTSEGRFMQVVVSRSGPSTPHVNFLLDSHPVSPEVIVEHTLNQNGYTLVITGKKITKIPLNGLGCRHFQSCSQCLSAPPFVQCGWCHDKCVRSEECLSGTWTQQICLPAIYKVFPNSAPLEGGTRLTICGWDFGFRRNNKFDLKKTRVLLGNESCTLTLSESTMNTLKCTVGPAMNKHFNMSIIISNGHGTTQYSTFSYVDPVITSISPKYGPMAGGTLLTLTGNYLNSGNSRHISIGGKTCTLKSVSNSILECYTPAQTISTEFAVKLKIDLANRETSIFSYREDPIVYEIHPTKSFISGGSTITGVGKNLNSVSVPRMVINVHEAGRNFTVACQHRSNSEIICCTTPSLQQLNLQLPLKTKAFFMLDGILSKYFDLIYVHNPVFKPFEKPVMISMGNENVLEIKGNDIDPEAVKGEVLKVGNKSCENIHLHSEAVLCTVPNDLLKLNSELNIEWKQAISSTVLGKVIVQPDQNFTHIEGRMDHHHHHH

[2] = molecular target: T2, free cMet (SEQ ID NO: 33) bound to Alexa-488 dye (human, UniProt P08581 25-932, Alexa-488 dye (site not stated)); experiment: FRET binding titration in solution
T2 construct: also called cMet-A488
T2 sequence (P08581 other isoform, or with tags, fused parts or gaps limits assumed): as above

[3] = molecular target: T1, recombinant human scMet antigen, cMet …; experiment: … chemiluminescent microparticle sandwich immunoassay on recombinant scMet

Binder | binding result [1] | binding result [2] | binding result [3]
B1 | binds |  | 
B2 |  | binds | binds

— patent WO2015031626A1 (dated 2015)
